{"source": "patent US20240024519A1", "about": "“RADIOPHARMACEUTICAL COMPOSITIONS OF COPPER FOR TARGETED MOLECULAR IMAGING” (Curium US LLC, priority 2022, published 2024)", "test": "Radiochemical purity (RCP) of dose vials over time after formulation, radio-HPLC", "assay_type": "physicochemical", "details": "10 Ci batches, with and without SPE purification (both formulations); post-formulation, i.e. after end of synthesis", "experimental": "Two 10 Ci batches of copper Cu-64 PSMA I&T were prepared, wherein the primary difference between them was removal of the purification step. During purification, a solid phase extraction cartridge was used to purify the product by removing radiolabeling buffer and remaining ^64Cu copper chloride starting material; however, this step requires concentration of the batch activity in a small volume (i.e., <1 mL), which can encourage radiolytic damage and result in detrimental impacts to radiochemical purity (RCP). This phenomenon was observed experimentally when comparing the radiochemical purity of copper Cu-64 PSMA I&T prepared with and without purification (FIG. 2). The removal of the purification step yielded a product with a higher RCP of 98.9% (FIG. 2B) versus 92.4% (FIG. 2A). The difference between the two purity profiles was that the primary radiolytic impurity (tR=16.8′-17.2′) was largely absent in the non-purified product. In both formulations, the RCP of individual dose vials prepared thereof was maintained over a period of 51 h post-formulation (i.e., 51 h after end of synthesis).", "data": [{"substance": "^64Cu-(3S, 7S, 26R, 29R, 32R, 37R)-29-benzyl-32(4-hydroxy-3-iodobenzyl)-5, 13, 20, 28, 31, 34-hexaoxo-37-(4,7,10-tris(carboxymethyl)-1, 4, 7, 10-tetraazacyclododecan-1-yl)-4, 6, 12, 21, 27, 30, 33-heptaazaheptatriacontane-1, 3, 7, 26, 37-pentacarboxylic acid [Cu-64 PSMA I&T]", "values": [{"measurement": "period over which RCP of individual dose vials was maintained", "value": 51, "unit": "h"}]}]}
